# Source: US20090286723A1
# T1: CGRP receptors (SK-N-MC cell membranes), Q16602
# T1 chain 1: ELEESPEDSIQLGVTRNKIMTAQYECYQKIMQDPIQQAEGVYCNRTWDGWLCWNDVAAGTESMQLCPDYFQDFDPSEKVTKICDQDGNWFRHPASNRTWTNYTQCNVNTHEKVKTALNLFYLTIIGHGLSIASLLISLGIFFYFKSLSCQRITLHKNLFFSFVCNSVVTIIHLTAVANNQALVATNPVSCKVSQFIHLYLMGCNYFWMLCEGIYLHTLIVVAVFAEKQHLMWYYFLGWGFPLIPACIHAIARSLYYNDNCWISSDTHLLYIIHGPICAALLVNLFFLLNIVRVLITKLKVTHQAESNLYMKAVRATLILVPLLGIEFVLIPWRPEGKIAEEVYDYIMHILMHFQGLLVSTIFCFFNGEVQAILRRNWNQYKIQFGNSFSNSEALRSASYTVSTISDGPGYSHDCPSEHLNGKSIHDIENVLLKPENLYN
# T1 chain 2: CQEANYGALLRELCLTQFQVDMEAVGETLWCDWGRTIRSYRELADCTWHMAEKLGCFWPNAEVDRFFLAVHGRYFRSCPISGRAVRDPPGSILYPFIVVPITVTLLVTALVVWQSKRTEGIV
# T2: amylin receptors (rat nucleus accumbens membranes) (rat)
# T2 chain 1: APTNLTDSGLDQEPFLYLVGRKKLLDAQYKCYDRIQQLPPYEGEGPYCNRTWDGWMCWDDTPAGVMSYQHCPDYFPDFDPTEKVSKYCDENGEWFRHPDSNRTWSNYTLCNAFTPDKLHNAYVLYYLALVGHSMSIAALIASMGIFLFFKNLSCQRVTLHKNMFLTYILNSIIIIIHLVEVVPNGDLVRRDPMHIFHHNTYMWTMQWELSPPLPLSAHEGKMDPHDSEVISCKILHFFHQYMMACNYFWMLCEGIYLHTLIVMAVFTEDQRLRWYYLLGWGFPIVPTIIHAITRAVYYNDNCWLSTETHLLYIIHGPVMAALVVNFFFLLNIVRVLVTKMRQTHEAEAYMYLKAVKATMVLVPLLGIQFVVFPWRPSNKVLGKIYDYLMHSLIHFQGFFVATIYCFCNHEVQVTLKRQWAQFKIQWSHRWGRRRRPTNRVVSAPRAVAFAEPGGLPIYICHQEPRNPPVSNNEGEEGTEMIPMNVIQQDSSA
# T2 chain 2: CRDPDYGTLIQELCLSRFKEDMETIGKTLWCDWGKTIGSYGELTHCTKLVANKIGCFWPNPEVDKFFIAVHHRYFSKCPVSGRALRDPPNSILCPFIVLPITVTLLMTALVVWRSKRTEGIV
# T3: neuropeptide Y2 receptor (SK-N-BE cell membranes), P49146
# T3 chain: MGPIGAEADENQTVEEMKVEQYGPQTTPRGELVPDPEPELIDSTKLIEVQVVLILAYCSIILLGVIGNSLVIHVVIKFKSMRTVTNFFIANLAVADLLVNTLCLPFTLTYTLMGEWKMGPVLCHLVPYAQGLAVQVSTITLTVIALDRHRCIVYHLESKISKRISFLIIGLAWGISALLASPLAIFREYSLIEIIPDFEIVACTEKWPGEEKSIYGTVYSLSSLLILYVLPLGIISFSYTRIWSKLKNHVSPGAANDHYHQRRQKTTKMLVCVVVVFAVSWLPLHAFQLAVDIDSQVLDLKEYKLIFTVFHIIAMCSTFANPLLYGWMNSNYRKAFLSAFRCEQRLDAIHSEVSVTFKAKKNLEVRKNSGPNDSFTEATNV
# B1: [#Suc-(bAla)-PYY-(3-36), amide] [#NH-Des-Lys1-Rat Amylin, amide] (peptide)
# chain 1: not shown
# chain 2: CNTATCATQRLANFLVRSSNNLGPVLPPTNVGSNTY
# modifications: not checked
# B2: [#Mal-Bu-(bAla)-PYY-(3-36), amide] [#S-Prp-(bAla)-Compound 10, amide] (peptide)
# chain 1: not shown
# chain 2: […]
# modifications: not checked
# Assays:
# [1] = target: GLP-1/GIP/CT (receptors read by the GLP-1/GIP/CT cyclase assay); experiment: cell-based or functional assay
# [2] = target: T1, CGRP receptors (SK-N-MC cell …); experiment: 125I-hCGRP displacement, SK-N-MC membranes
# [3] = target: T2, amylin receptors (rat nucleus accumbens …); experiment: amylin receptor binding assay
# calcitonin receptor = experiment: cell-based or functional assay
# Sequence of calcitonin receptor (P30988 whole entry): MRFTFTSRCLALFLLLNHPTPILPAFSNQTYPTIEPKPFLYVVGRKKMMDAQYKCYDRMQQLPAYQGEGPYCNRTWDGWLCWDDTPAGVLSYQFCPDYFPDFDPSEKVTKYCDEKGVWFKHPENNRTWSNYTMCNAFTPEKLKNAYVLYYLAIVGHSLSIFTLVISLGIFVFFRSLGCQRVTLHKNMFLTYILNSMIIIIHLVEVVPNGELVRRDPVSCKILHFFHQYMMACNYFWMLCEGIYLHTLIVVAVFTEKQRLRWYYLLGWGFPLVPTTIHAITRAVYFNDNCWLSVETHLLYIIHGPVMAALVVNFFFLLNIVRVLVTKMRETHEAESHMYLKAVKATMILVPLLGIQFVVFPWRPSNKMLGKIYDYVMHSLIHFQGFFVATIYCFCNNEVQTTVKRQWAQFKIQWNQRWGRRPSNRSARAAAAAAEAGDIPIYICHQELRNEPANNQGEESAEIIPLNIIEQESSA
# [4] = target: T3, neuropeptide Y2 receptor (SK-N-BE cell …); experiment: [125I]-human PYY displacement, SK-N-BE membranes
# [5] = target: amylin receptors (rat nucleus accumbens membranes) (rat); experiment: 125I-amylin displacement, rat nucleus accumbens membranes
binder,measurement,setting,value
"DFMGWMDFGKRKCNTATCATQRLANELVRLQTYPRTNVGSNTY (modifications not checked) [27(p-CH2SO3)-PheCCK8(26-33),G,K,R,15Glu,hAmy(1-17),18Arg,Sct(18-26),hAmy(32-37)]",Receptor Activation: GLP-1/GIP/CT cyclase,[1],1000
same,Receptor Binding,[2],4.4
DFMGWMDFGKRKCNTATCATQRLANELVRLQTYPRTNVGSNTY (modifications not checked) [DF(P-CH2SO3)… …],IC50,[3],0.083 nM
B1,Receptor Activation: CT cyclase,calcitonin receptor,645
same,Receptor Binding,[4],0.39
B2,Receptor Binding,[4],0.2
KCNTATCATQRLANFLVRSSNNLGPVLPPTNVGSNTY (modifications not checked) [Rat amylin],Receptor Activation: CT cyclase,calcitonin receptor,326
same,Receptor Activation: GLP-1/GIP/CT cyclase,[1],5
same,Receptor Binding,[5],0.05
same,Receptor Binding,[2],21
